Assay results: patent US20240301061A1
Each block holds one binder with its values, some of them ahead of it.

Legend:
CD3ε/δ [1] = target: CD3ε/δ (UniProt P07766); assay: SPR
CD3ε/δ [2] = target: CD3ε/δ (UniProt P07766); assay: SPR, antibody captured on anti-human Fc surface

Chain of CD3ε/δ (P07766 23-126, stated change not applied, chain 1 of 2): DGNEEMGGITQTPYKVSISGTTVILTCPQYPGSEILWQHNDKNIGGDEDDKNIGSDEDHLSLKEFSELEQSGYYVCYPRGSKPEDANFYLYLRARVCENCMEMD
Chain of CD3ε/δ (P04234 22-105, stated change not applied, chain 2 of 2, further chain): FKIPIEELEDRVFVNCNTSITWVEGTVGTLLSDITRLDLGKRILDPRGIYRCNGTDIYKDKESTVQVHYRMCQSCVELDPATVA

- Kd (CD3ε/δ [1]): 25.9 nM
- koff (CD3ε/δ [1]): 0.00188 s⁻¹
- kon (CD3ε/δ [1]): 72500 M⁻¹ s⁻¹
B1: humanized sp34 scFv BG561P (Fc fusion, not shown: a dimerising Fc or GST)
scFv: EVQLVESGGGLVQPGGSLRLSCAASGFTFNTYAMNWVRQAPGKGLEWVARIRSKYNNYATYYADSVKDRFTISRDDAKNSLYLQMNSLRAEDTAVYYCVRHGNFGNSYVSWFAYWGQGTLVTVSSGGGGSGGGGSGGGGSEIVLTQSPATLSVSPGERATLSCRSSTGAVTTSNYANWVQQKPGQAPRGLIGGTNKRAPGIPARFSGSLSGDEATLTISSLQSEDFAVYYCALWYSNLWVFGGGTKVEIK

- Kd (CD3ε/δ [2]): 27.1 nM
- koff (CD3ε/δ [2]): 0.00296 s⁻¹
- kon (CD3ε/δ [2]): 109000 M⁻¹ s⁻¹
B2: chimeric sp34 (antibody, V domains shown)
VH: EVQLVESGGGLVQPKGSLKLSCAASGFTFNTYAMNWVRQAPGKGLEWVARIRSKYNNYATYYADSVKDRFTISRDDSQSILYLQMNNLKTEDTAMYYCVRHGNFGNSYVSWFAYWGQGTLVTVSS
VL: QAVVTQESALTTSPGETVTLTCRSSTGAVTTSNYANWVQEKPDHLFTGLIGGTNKRAPGVPARFSGSLIGDKAALTITGAQTEDEAIYFCALWYSNLWVFGGGTKLTVL
